# Experimental data reported in patent US20260258128A1 (MUSTBIO, published 2026).
# Where a chain is given by its changes, count along the chain named.
# B1: Protein complex of CD3-binding antibody variable region 3-Fc x PD-L1 antibody (bispecific antibody)
# scFv-Fc: EVQLVESGGGLVQPGGSLRLSCAASGFSFTGYTMNWVRQAPGKCLEWVALINPYKGVTTYADSVKGRFTISRDNSKNTLYLQMNSLRAEDTAVYYCARSGYYGDSDWYFDVWGQGTLVTVSSGGGGSGGGGSGGGGSDIQMTQSPSSLSASVGDRVTITCRASQDIRNYLNWYQQKPGKAPKLLIYYTSSLESGVPSRFSGSGSGTDYTLTISSLQPEDFATYYCQQGNTLPWTFGCGTKVEIKRTEPKSSDKTHTCPPCPAPEAAGGPSVFLFPPKPKDTLMISRTPEVTCVVVDVSHEDPEVKFNWYVDGVEVHNAKTKPREEQYNSTYRVVSVLTVLHQDWLNGKEYKCKVSNKALPAPIEKTISKAKGQPREPQVYTGPPSRDELTKNQVSLSCAVKGFYPSDIAVEWESNGQPENNYKTTPPVLDSDGSFFLVSKLTVDKSRWQQGNVFSCSVMHEALHNHYTQKSLSLSPGK
# heavy: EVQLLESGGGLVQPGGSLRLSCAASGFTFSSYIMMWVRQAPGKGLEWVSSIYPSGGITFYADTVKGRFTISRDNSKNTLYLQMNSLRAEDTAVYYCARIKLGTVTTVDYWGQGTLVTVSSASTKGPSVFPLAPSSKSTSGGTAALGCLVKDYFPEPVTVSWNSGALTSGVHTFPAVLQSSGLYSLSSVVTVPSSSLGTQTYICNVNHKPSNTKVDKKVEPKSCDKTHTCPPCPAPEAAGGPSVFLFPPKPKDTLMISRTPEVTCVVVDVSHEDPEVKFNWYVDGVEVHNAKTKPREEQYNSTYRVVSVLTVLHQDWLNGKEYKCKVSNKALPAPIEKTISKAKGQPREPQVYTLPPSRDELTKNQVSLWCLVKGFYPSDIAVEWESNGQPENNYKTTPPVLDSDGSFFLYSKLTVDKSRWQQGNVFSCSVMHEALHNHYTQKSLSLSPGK
# light: QSALTQPASVSGSPGQSITISCTGTSSDVGGYNYVSWYQQHPGKAPKLMIYDVSNRPSGVSNRFSGSKSGNTASLTISGLQAEDEADYYCSSYTSSSTRVFGTGTKVTVLGQPKANPTVTLFPPSSEELQANKATLVCLISDFYPGAVTVAWKADGSPVKAGVETTKPSKQSNNKYAASSYLSLTPEQWKSHRSYSCQVTHEGSTVEKTVAPTECS
# B2: Protein complex of CD3-binding antibody variable region 1-Fc x PD-L1 antibody (bispecific antibody)
# chain 1: EVQLVESGGGLVQPGGSLRLSCAASGFSFTGYTMNWVRQAPGKGLEWVALINPYKGVTTYADSVKGRFTISRDNSKNTAYLQMNSLRAEDTAVYYCARSGYYGDSDWYFDVWGQGTLVTVSSDIQMTQSPSSLSASVGDRVTITCRASQDIRNYLNWYQQKPGKAPKLLIYYTSRLESGVPSRFSGSGSGTDYTLTISSLQPEDFATYYCQQGNTLPWTFGQGTKVEIKRT
# chain 2: EVQLLESGGGLVQPGGSLRLSCAASGFTFSSYIMMWVRQAPGKGLEWVSSIYPSGGITFYADTVKGRFTISRDNSKNTLYLQMNSLRAEDTAVYYCARIKLGTVTTVDYWGQGTLVTVSSASTKGPSVFPLAPSSKSTSGGTAALGCLVKDYFPEPVTVSWNSGALTSGVHTFPAVLQSSGLYSLSSVVTVPSSSLGTQTYICNVNHKPSNTKVDKKV
# chain 3: B1 light
# B3: Protein complex of CD3-binding antibody variable region 4-Fc x PD-L1 antibody (bispecific antibody)
# chain 1: B2 chain 1 with R72A, A79L, R175S
# chain 2: B2 chain 2
# chain 3: B1 light
# B4: Protein complex of CD3-binding antibody variable region 2-Fc x PD-L1 antibody (bispecific antibody)
# scFv-Fc: B1 scFv-Fc with C44G, C237Q
# heavy: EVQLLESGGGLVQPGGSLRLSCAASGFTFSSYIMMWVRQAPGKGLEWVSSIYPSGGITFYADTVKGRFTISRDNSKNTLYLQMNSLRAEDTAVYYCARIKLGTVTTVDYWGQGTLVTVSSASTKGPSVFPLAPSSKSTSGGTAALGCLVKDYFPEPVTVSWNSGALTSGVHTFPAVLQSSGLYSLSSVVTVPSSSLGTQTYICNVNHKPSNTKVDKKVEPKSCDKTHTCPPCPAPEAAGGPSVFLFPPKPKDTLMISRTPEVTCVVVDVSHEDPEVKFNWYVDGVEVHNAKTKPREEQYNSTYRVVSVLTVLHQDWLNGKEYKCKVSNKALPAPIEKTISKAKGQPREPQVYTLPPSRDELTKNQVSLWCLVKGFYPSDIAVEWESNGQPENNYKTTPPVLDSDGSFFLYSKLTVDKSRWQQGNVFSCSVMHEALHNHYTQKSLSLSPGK
# light: B1 light
# B5: Protein complex of CD3-binding antibody variable region 7-Fc x PD-L1 antibody (bispecific antibody)
# chain 1: B2 chain 1 with R72Q, A79L, R175S
# chain 2: B2 chain 2
# chain 3: B1 light
# B6: Protein complex of CD3-binding antibody variable region 5-Fc x PD-L1 antibody (bispecific antibody)
# chain 1: B2 chain 1 with G44C, R72A, A79L, R175S, Q222C
# chain 2: B2 chain 2
# chain 3: B1 light
# B7: Protein complex of CD3-binding antibody variable region 6-Fc x PD-L1 antibody (bispecific antibody)
# chain 1: B2 chain 1 with R72D, A79L, R175S
# chain 2: B2 chain 2
# chain 3: B1 light
# Biological target: T1, CD3 on T cells of human peripheral blood mononuclear cells (human, UniProt P07766 23-207)
# T1 sequence (P07766 23-207): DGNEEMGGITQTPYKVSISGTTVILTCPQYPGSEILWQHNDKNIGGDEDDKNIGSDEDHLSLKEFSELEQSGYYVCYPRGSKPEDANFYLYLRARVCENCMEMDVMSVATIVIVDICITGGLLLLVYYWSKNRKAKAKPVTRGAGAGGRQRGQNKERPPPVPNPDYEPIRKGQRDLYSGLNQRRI
# Experiment: cell-based or functional assay
row,Binder,fold reduction of the maximum cytokine release level compared to the CD3-binding monoclonal antibody
1,B1,10.5 fold

# Biological target: T1, CD3 on T cells of human peripheral …
# Experiment: cell-based or functional assay
# Remark: another data set of the same source
Binder,"Death of cancer cells EC50 (MDA-MB-231 + human PBMC, flow cytometry)",Death of cancer cells Emax (%),IFNγ release EC50,IFNγ release Maximum concentration
B2,0.23 nM,80%,0.1 nM,6.1 ng/mL
B3,0.18 nM,79%,31.2 nM,2.6 ng/mL
B4,0.05 nM,,2.5 nM,
B5,2.26 nM,68%,15.3 nM,9.3 ng/mL
B6,0.18 nM,66%,10 nM,4.4 ng/mL
B7,3.5 nM,68%,16.4 nM,5.1 ng/mL
B1,0.06 nM,,0.1 nM,

# Biological target: PD-L1 on human cells (MDA-MB-231, MCF-7, 293T) (human, UniProt Q9NZQ7 19-290)
# Sequence (Q9NZQ7 19-290): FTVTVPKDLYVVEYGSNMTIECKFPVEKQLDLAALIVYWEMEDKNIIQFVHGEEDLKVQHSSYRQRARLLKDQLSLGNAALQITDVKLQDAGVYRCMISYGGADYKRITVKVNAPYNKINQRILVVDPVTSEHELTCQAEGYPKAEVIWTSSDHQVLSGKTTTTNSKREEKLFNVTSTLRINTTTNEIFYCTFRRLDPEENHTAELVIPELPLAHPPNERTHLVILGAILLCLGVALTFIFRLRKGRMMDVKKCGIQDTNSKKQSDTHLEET
# Experiment: cell-based or functional assay
Binder,"Tumor lysis EC50, 293T (normal cells, low PD-L1 expression) + human PBMC","Tumor lysis EC50, MCF7 (low PD-L1 expression) + human PBMC","Tumor lysis EC50, MDA-MB-231 (high PD-L1 expression) + human PBMC"
B4,0.0313 nM,0.15 nM,0.0945 nM
